experiment: label from the status in PepcDB records

Row | Sequence | protein production
1 | MKKSILFTFVLCLLSQWSVAQAPKWVEKAKRSVFSIVTYDKDDKIQNTGNGFFVTEDGVALSDYSLFKGAQRAVIINSEGEKMPVECILGANDMYDIIKFRVGITVKKVPALQVAALAPAVGAEVYLLPYSTQKGGNVTRGKVKKVDNIGGDKYHYYTLDMVLKDKMVSCPVTTADGKVFGVAQKSSGQDTASISYAAGAAFAMSQNISALALSDPALNAIGIKKGLPEDEDQALVYLFIASTQSTPEAYAIALDDFIKTFPNSADGYLRRAGNYVFADKDENHMDKAAADLEHALKVAQKKDDTYYNIAKLIYNYQLSKPETVYKDWTYDQALENVRSAIAIQSLPVYQQLEGDILFAKQDYAGAFASYDKVNQTELASPASFFSAAKAKELSKAAPEEVIALLDSCIARCQTPITSDLAPYLLERAQMYMNVEKYRLALADYDAYFNAVKGSVNDLFYYYREQAAFKAKQFQRALDDIAKAIELNPEDLTYRAEQAVVNLRVGRYEEAEKVLKDALAIDPKYAEGYRLLGICQIQLKQEKAACASFAKAKELGDPNVDELIKKHCK | failed
2 | MKKSLTLVLVVVSILIFSQTFKLEKVLGFSDISSLAFKDGYLLLGTGNGEIIVYKDGSYYRAFKVHDNRVNEVTFENGFIVSASDDKTVGVTNLETGEIKLLKGHMKGVSSVAVAGSKILSASFDGTVRVWSFPDGGEISSQKLGPSVVQIAAHENRYVVGLANGLALIRDLSNQSFSIPLKAHPEGIKKIVFSENGQLIATCGGNTVKVWNASNGNLVLQYDHVITVNDVAFLENDSLIFVADDYKAVVLNIQKNEVVKSIDAHNNFVLFVSSDDGSIATYGMDKTVKVWNANLELQYSLYGHQLSVNTVALSSDRKFIVSGSDDREILIWNTEKGIAEHRIKALSGVRKLLTVENNIISCLDSNQLKIYNLENGKLVKRIKVGTTSTMDIALQNDRMAVGFYDGSVALFRYPSFEEIWRKDTEHEMIQTIDMNNKFIAFGVSYSDPKDKIGYVEVLSADTGERVFLLEGHRGNVNAVKFAGDFLVSGGEDGKVILWNLDTGSKVKEIYLNEPVSSLFVDEKELFVGTWNGSIKIFAFPDLTLKTSLKASDQKIGHLIKVGNHLVVPCGDGKIRILVEK | failed
3 | MKKTFEKVYHLKLSIKGITPQIWRRIQVPENYTFLDLHKAIQAVMDWEDYHLHEFEMVNPKTGMLDKIGAEGDDFDAFGGPLVSEKKAKLSDYFTLENKEALYTYDFGDNWQVKVRLEKILPRKEGVEYPICTAGKRAAVPEDSGGVWGYEEMLEVLKDSEHEEYEDTVLWLGDDFDPEYFDPKDVSF | not failed
4 | MKKVFIPINTKIPVERQFPNRVPIWGNYEFIISTKEPEQEYDYVVVLDDIEYSLRLMCCKQNICLFTGEPPYVKLYPRKYLNQFGHVYTCQSSVLKRDNACLSYPALPWMLYYNFYNDKQKEELLIDYDFLKNRPTLQRKNKICLFTSNKKISKGHIERIKFALKLQEEMPDLIDIYGSGFTNVDYKYEVMVQYKYAIVIENCSYPYYWTEKLADTFLSGCYPIYFGDPHIGDFFSKEEMAVIDIRNFDESKQTIKKIIDNNVYEKQYENICHARDKILDKYNMFSLISSTLDSIPAKLDKEKLLLSPMRLSVFDRIRNRIYRLFYLEHHHHHH | failed
5 | MKKVLVGLLAIMVMIIASGYTYYKMNYGGESYYVQILVNGEREETTADDHTPMVIYHYKLDSFNSKGDKKLVKFMASHNLRNQAYLELTYNKHKGVTNWNEVQEKEIPKPALKELQSLENLEHHHHHH | failed
6 | MKKVTIVGGNGTVGRVLAGGLAGEGYEVTVLDLKEPDDKQAVRFIRVDATDYNEVVKSIPAQTNALINLLAVKPSGDLLDRQEFAKMTDIFFKATYTILRAAAELGVPKVVFASSNHVTDVYEKGGDSLLGRQINTNDYPQSKSLYGLLKLASENLGYLFSHQLDAKVSVINLRIGTAAENELETLHAKPRSKKTLLSHPDLIGIFKAAIKSGKTYGTYYAVSDNKGRPWSIDSAIRELGYRPQVSASDILDED | failed
7 | MKKYILIGLGGAIGAILRCFIRNTKIPVYKGEFPISTLMINLSGAFILAVILITANEIWSFNEEIRLGIATGFVGAYTTFSTMCKETIILMNKNLYFLAFCYVTVSVVFGLLFAYFGALSARKILSRLLKVRKEDEKAS | failed
8 | MKKYLDKLQNMPIGISGTCLAFITLSNSWNLKGINYFKPIAIFLAVCMLSLMILRLIRFPKVMYEELKNPVTGTFYPTMGMVVWLVSGFFYPYFPVVCSWLWIAAVIYHYGIVIFYTIIRIKERKFENIMPTCFIVYTGMITGSVASKGMDGVIPQIPQIAHFMLMFGFIFYTILLPLVLYIVFKSEILDDHKLPTVGIICSPAPLGVVGILTIEPNPNPYMLAWLIITGLILLVVVYGYILKLFKEGFKPSYAAFTFPLAIATLSAFKLSTYFTGLGYAKMANLFKFLGDVEIFIATYVIFFMLLNFLNMFFKAISPKLGEYVEEEEELIGGTLYSK | failed
9 | MKLAKKMILAAAVLPLTLGTTAALAYGGHGWDKEGDGHCGDRGERGIWKQLDLTAEQQAQLKEMREAGREEMRANRGQSHDAMKALHAQERALVLAADFDQAAAENLAKQMVDQQVTHRVKMMEKRHQMMSILTAEQKAKLQTLQQEKMAECMQDGQHGKGKKHASQLEHHHHHH | not failed
10 | MKLAYWMYAGPAHIGTLRISSSFRNVHAIMHAPLGDDYFNVMRSMLERERNFTPVTTSVVDRNVLARGSQEKVIDNILRKDTEERPDLIVLTPTCTSSILQEDLQNFVERAKESAQCDVLLADVNHYRVNELQAADRTLEQIVRFYLDRAQRQGTLPSQRTEQPSVNILGMTTLGFHNRHDTTELQRLMADLGITVNAVIPAGASVEELQHLPRAWFNLVPYREVGLLTAQYLQDTFDQPMVAIAPMGITATADCIRQIQQVLNQQGAAVDFEPFIDRQTRFASEAAWFSHSIDCQNLTGKRAVVFGDNTHAAAFTKILSREMGIHVVLAGTYCKHDADWFEAEVAGYCDRVLISDDHNAIADAIAELEPAAIFGTQMERHVGKRLNIPCGVIAAPVHIQNFPVGYRPFVGYEGANQIVDLVYNSFTLGMEDHLLEIFGGHDTKEVLTKTVSAGSDLDWKPDGLTELNRIPGFVRGKVKRNTEKYAREQGLTAITAEVLYAAKEALGALEHHHHHH | not failed
11 | MKLDEIARLAGVSRTTASYVINGKAKQYRVSDKTVEKVMAVVREHNYHPNAVAAGLRAGRTRSIGLVIPDLENTSYTRIANYLERQARQRGYQLLIACSEDQPDNEMRCIEHLLQRQVDAIIVSTSLPPEHPFYQRWANDPFPIVALDRALDREHFTSVVGADQDDAEMLAEELRKFPAETVLYLGALPELSVSFLREQGFRTAWKDDPREVHFLYANSYEREAAAQLFEKWLETHPMPQALFTTSFALLQGVMDVTLRRDGKLPSDLAIATFG | failed
12 | MKLFTTALFAIAFGIVIGLSFPSLWITEIWEPSNPRGAERLPSGIIASESDLYLRRLWGNPDEDLVKQPRYLATFTVGYNQRHNIDACVSKFSENFTIVLFHYDGVTSAWNDEFEWSRNAIHISVKKQTKWWYAKRFLHPDIVARYDYIFIWDEDLGVDHFNAEEYIHIVKKHDLEISQPGLDPETGFNWQITKRREHSEVHKETDEKLDWCSNPPRPPCAAFVEIMAPVFSRDAWRCVWHMIQNDLVHGWGLDFALRRCVEEPAFEKIGIVDSQWIVHQFIPSLGNQGKADNGKAPWQGVRDRCQMEWKMFENRVEAAEKDYFRSLQVESPSNSTTSH | failed
13 | MKLGIGKIKDVLKSGAGKSTESGREEQKIEEIEPDRVEEATMTAKISEQESENTPDKEHLVPMNRTECKKTGLIFFPAFDWAISPTHPEREERLLYTRDQIFEEGLMDLPQIAEYKPRLAEFKDIARVHFCIPDIEAQATTPHLIAAGSCLVLADALMRGEVKNAFALVRPPGHHAMTVAHGNRGFCNINNEAILVEYLRKKYGIRRIAIVDTDVHHGDGTQEIFYNDPDILFISFHQDGRTLYPGSGFTNELGGPKALGRTINIPLPPGTPDEGILYVLDSLVMPILEDFKPELVLNSAGQDNHYTDPLANMRFSAQGYAKLNEKLGPDMAVLEGGYAIQSALPYVNTGIILAMAGLDYSCVMEPDFKPGMFVQAARDRQILEGVVATQLENWKNRNRLVEEEIAKHGDFYRRKKQIFYDTDMIQEVQEETIKMCPDCQGYVTIDSRAHRSINDTRIFGVSVPIYACNRCQAEAEEEYKKRLKSPEYEYVYLQDKKADEYRAYNMRTKQEIVY | failed

— a protein production outcome set (Wang et al. 2014)
